Test results: the supplement of paper PMC9170038

Test system: MS2 coat protein
Test: apparent KD of MS2 coat protein; designed switch direction (-1 OFF switch, 1 ON switch): -1; higher = weaker reporter binding
Summary of the method: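 Designed RNA switches with common flanks were transcribed on Illumina chips by stalled E. coli RNA polymerase and titrated with SNAP-549-labelled MS2 coat protein, from 0.7 or 1.5 nM doubling to 3 µM, in Tris-HCl pH 7.5 buffer with KCl, MgCl2, BSA, DTT, tRNA and Tween-20. Steps lasted 0.8–1.5 h (lowest) to 10–20 min (highest). Titrations ran without input, with 200 uM small-molecule ligand, or with an oligonucleotide input. Normalised cluster fluorescence was curve-fitted, and apparent KD is the per-design median over clusters.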

[1] = Eterna round: R95, input ligand: FMN 200 uM
[2] = Eterna round: R95, input ligand: microRNA oligo, concentration not stated
[3] = Eterna round: R95, input ligand: none
[4] = input ligand: microRNA oligo, concentration not stated

| Sequence | apparent KD of MS2 coat protein (input ligand: FMN 200 uM) [nM] | apparent KD of MS2 coat protein (input ligand: none) [nM] | apparent KD of MS2 coat protein [2] [nM] | further results |
| --- | --- | --- | --- | --- |
| CAGCUGAAAGUCAGGAUAUCUAGAGCUUCGGCUCUAGAGAAGGGACAUGAGGAUCACCCAUGUGAUUACAGCUG [BmEx4/6-A1] (Eterna round: R97, puzzle: Brourd's mod of Exclusion 4) | 108 | 60.6 |  |  |
| CAGCUGAAAGUGAGGAUAUCUAGAGCUUCGGCUCUAGAGAAGGCACAUGAGGAUCACCCAUGUCUCAACAGCUG [BmEx4/1-A1] (Eterna round: R97, puzzle: Brourd's mod of Exclusion 4) | 59.5 | 16.9 |  |  |
| CAGCUGAAAGUGAGGAUAUCUAGAGCUUCGGCUCUAGAGAAGGCACAUGAGGAUCACCCAUGUGAUCACAGCUG [BmEx4/7-A1] (Eterna round: R97, puzzle: Brourd's mod of Exclusion 4) | 633 | 356 |  |  |
| CAGCUGAAUGUCAGGAUAUCUAGAGCUGCGGCUCUAGAGAAGGGACAUGAGGAUCACCCAUGUCACUCCAGCUG [BmEx4/3-B3] (Eterna round: R97, puzzle: Brourd's mod of Exclusion 4) | 21.3 | 16.4 |  |  |
| CAGCUGAAUGUGAGGAUAUUACGAGCGAUAGCUCGUGAGAAGGCACAUGAGGAUCACCCAUGUCUCAACAGCUG [BmEx4/2-B4] (Eterna round: R97, puzzle: Brourd's mod of Exclusion 4) | 552 | 38.6 |  |  |
| CAGGACUGAGGAUAUGCGCGGACAAGAUCCUCAAUCCCAAAACAUGAGGAUCACCCAUGUAGAAGGCAGAAAUA [Edbein] (puzzle: Exclusion 2) |  |  | 35.4 | apparent KD of MS2 coat protein [1]: 32.9 nM; apparent KD of MS2 coat protein [3]: 31 nM |
| CAGGACUUAGGAUAUCAUGUGCGAGACAUGAGGAUCACCCAUGUAGGAAGCCGUCGCGGGUGAGAAGGAGGGCGAU [Exclusion 5 S1] (puzzle: Exclusion 5) |  |  | 277 | apparent KD of MS2 coat protein [1]: 266 nM; apparent KD of MS2 coat protein [3]: 366 nM |
| CAGGAUAGAGGAUAUACAUAGAUACAGAUUCGUGUAAUCCUACAUGAGGAUCACCCAUGUAGAAGGCUAUCCUG [Fiskers Ex 2 - 20] (puzzle: Exclusion 2) |  |  | 13.2 |  |
| CAGGAUAGAGGAUAUACAUAGAUACAGGUUCAUGUAAUCCUACAUGAGGAUCACCCAUGUAGAAGGCUAUCCUG [Fiskers Ex 2 - 19] (puzzle: Exclusion 2) |  |  | 14.8 |  |
| CAGGUUAGAGGAUAUACGUAGGUACAGAUCUGUGUGUUCCUACAUGAGGAUCACCCAUGUAGAAGGCUAUCCUG [LRO-Excl2-09] (puzzle: Exclusion 2) |  |  | 61.9 |  |
| CAGUACAGAGGAUAUACAUGAGGAUCACCCAUGUGUAGCAGCUAGGAGACUAGCGCAUGUAGAAGGCUGUACUG [jl-ex3-4.31 salish99 mod] (Eterna round: R97, puzzle: Exclusion 3) | 129 | 21.3 |  |  |
| CAGUACAGAGGAUAUACAUGAGGAUCACCCAUGUGUUUCAGCAUCGAAAGAUGCGAAUGUAGAAGGCUGUACUG [jl-ex3-4.26 salish99 mod] (Eterna round: R97, puzzle: Exclusion 3) | 313 | 26.5 |  |  |
| CAGUACAGAGGAUAUACAUGAGGAUCACCCAUGUGUUUCAGCUAGGAAACUAGCGAAUGUAGAAGGCUGUACUG [jl-ex3-4.24 salish99 mod] (Eterna round: R97, puzzle: Exclusion 3) | 178 | 38.3 |  |  |
| CAGUACUGAGGAUAUACAUGAGGAUCACCCAUGUAAUAAUCGUAGGAAACUACGAUAUGUAGAAGGCAGUACUG [Eli x3 4.04] (Eterna round: R97, puzzle: Exclusion 3) | 16 | 13.1 |  |  |
| CAGUACUGAGGAUAUACAUGAGGAUCACCCAUGUGAGUGAUACUAGUGAGGUCGAUUAGUAGAAGGCAGUACUG [Mat X3R4 m27] (Eterna round: R97, puzzle: Exclusion 3) | 1110 | 123 |  |  |
| CAGUACUGAGGAUAUACAUGAGGAUCACCCAUGUGAUUCAGUGCACGCGUACGUGUACGUAGAAGGCAGUACUG [JL 3.27 m2] (Eterna round: R97, puzzle: Exclusion 3) | 761 | 49 |  |  |
| CAGUACUGAGGAUAUACAUGAGGAUCACCCAUGUGCCUAAGCUAGGAUACUAGCAUUAGUAGAAGGCAGUACUG [Fiskers Ex 3 828 mod 15] (puzzle: Exclusion 3) |  |  | 13.6 |  |
| CAGUACUGAGGAUAUACAUGAGGAUCACCCAUGUGCUUUAGCUAGGAUACUAGCACUAGUAGAAGGCAGUACUG [Fiskers Ex 3 828 mod 10] (puzzle: Exclusion 3) |  |  | 12.3 |  |
| CAGUACUGAGGAUAUACAUGAGGAUCACCCAUGUGUCCCAGCUAGGAAACUAGCAAAAGUAGAAGGCAGUACUG [828 mod 2 m4] (Eterna round: R97, puzzle: Exclusion 3) | 622 | 28.1 |  |  |

| Sequence | apparent KD of MS2 coat protein (input ligand: FMN 200 uM) [nM] | apparent KD of MS2 coat protein (input ligand: none) [nM] | apparent KD of MS2 coat protein [2] [nM] | further results |
| --- | --- | --- | --- | --- |
| CAGUACUGAGGAUAUACAUGAGGAUCACCCAUGUGUCCCAGCUAGGAAACUAGCAAAAGUAGAAGGCAGUACUG [Fiskers Ex 3 828 mod 1] (Eterna round: R96, puzzle: Exclusion 3) |  |  |  | apparent KD of MS2 coat protein [4]: 20.6 nM |
| CAGUACUGAGGAUAUACAUGAGGAUCACCCAUGUGUCCCAGCUAGGAAACUAGCAAAAGUAGAAGGCAGUACUG [Fiskers Ex 3 828 mod 1] (puzzle: Exclusion 3) |  |  | 24.4 | apparent KD of MS2 coat protein [1]: 420 nM; apparent KD of MS2 coat protein [3]: 24.5 nM |
| CAGUACUGAGGAUAUACAUGAGGAUCACCCAUGUGUCUUCUAUUAGGAAACUAGUUAUGUAGAAGGCAGUACUG [Omei Ex3 Mod of Eli 4.27 v8] (Eterna round: R97, puzzle: Exclusion 3) | 221 | 16.9 |  |  |
| CAGUACUGAGGAUAUACAUGAGGAUCACCCAUGUGUGUGAGUUUUGGAUGAAUGUUAUGUAGAAGGCGGUGCUG [JR_Ex3_Sub036] (Eterna round: R97, puzzle: Exclusion 3) | 179 | 466 |  |  |
| CAGUACUGAGGAUAUACAUGAGGAUCACCCAUGUGUGUGAGUUUUGUAUGAAUGUUAUGUAGAAGGCGGUGCUG [JR_Ex3_Sub034] (Eterna round: R97, puzzle: Exclusion 3) | 285 | 504 |  |  |
| CAGUACUGAGGAUAUACAUGAGGAUCACCCAUGUGUUCCAGCUAGGAAACUAGCAAAAGUAGAAGGCAGUACUG [Ex3: 828] (Eterna round: R96, puzzle: Exclusion 3) | 646 | 25.9 |  | apparent KD of MS2 coat protein [4]: 22.1 nM |
| CAGUACUGAGGAUAUACAUGAGGAUCACCCAUGUGUUCCAGCUAGGAAACUAGCAAAAGUAGAAGGCAGUACUG [salish99_ex3_r3_064] (puzzle: Exclusion 3) |  |  | 19.6 | apparent KD of MS2 coat protein [1]: 285 nM; apparent KD of MS2 coat protein [3]: 22.4 nM |
| CAGUACUGAGGAUAUACAUGAGGAUCACCCAUGUGUUCCAGCUAGGAAACUAGCAAGAGUAGAAGGCAGUACUG [salish99_ex3_r3_066] (Eterna round: R96, puzzle: Exclusion 3) | 543 | 22.9 |  | apparent KD of MS2 coat protein [4]: 18.5 nM |
| CAGUACUGAGGAUAUACAUGAGGAUCACCCAUGUGUUCCAGCUAGGAAACUAGCAAGAGUAGAAGGCAGUACUG [salish99_ex3_r3_066] (puzzle: Exclusion 3) |  |  | 24.1 |  |
| CAGUACUGAGGAUAUACAUGAGGAUCACCCAUGUGUUCCAGCUAGGAAACUAGCAAGUGUAGAAGGCAGUACUG [Salish 065 m7] (Eterna round: R97, puzzle: Exclusion 3) | 1090 | 410 |  |  |
| CAGUACUGAGGAUAUACAUGAGGAUCACCCAUGUGUUCCAGCUAGGAGACUAGCAAAAGUAGAAGGCAGUACUG [salish99_ex3_r3_074] (Eterna round: R96, puzzle: Exclusion 3) | 523 | 25.1 |  | apparent KD of MS2 coat protein [4]: 20 nM |
| CAGUACUGAGGAUAUACAUGAGGAUCACCCAUGUGUUCCAGCUAGGAGACUAGCAAAAGUAGAAGGCAGUACUG [salish99_ex3_r3_074] (puzzle: Exclusion 3) |  |  | 23.5 |  |
| CAGUACUGAGGAUAUACAUGAGGAUCACCCAUGUGUUCCAGCUAGGAUACUAGCAAGUGUAGAAGGCAGUACUG [Mat - Exclusion 3 - Eli Mod - D7] (Eterna round: R97, puzzle: Exclusion 3) | 188 | 396 |  |  |
| CAGUACUGAGGAUAUACAUGAGGAUCACCCAUGUGUUCCAGCUAGGGAACUAGCAAAAGUAGAAGGCAGUACUG [salish99_ex3_r3_075] (Eterna round: R96, puzzle: Exclusion 3) | 455 | 25 |  | apparent KD of MS2 coat protein [4]: 20.4 nM |
| CAGUACUGAGGAUAUACAUGAGGAUCACCCAUGUGUUCCAGCUAGGGAACUAGCAAAAGUAGAAGGCAGUACUG [salish99_ex3_r3_075] (puzzle: Exclusion 3) |  |  | 23.1 |  |
| CAGUACUGAGGAUAUACAUGAGGAUCACCCAUGUUCCAAGGCUAGGAUACUAGCAAAGGUAGAAGGCAGUACUG [Mat - Exclusion 3 - Eli Mod - D26] (Eterna round: R97, puzzle: Exclusion 3) | 150 | 17.6 |  |  |
| CAUACACAUGAGGAUCACCCAUGUGAGGAUAUGCGUACGUUGUCCGUAGGCGACGUGCGCAGAAGGCGCAUGAG [JL-ex1-3.13 Eli mod] (puzzle: Exclusion 1) |  |  | 90.9 | apparent KD of MS2 coat protein [1]: 27.6 nM; apparent KD of MS2 coat protein [3]: 91.6 nM |
| CAUACACAUGAGGAUCACCCAUGUGAGGAUAUGCGUACGUUGUCCGUAGGCGACGUGCGCAGAAGGCGCGUGUU [JL-ex1-3.15 Eli mod] (puzzle: Exclusion 1) |  |  | 42.5 |  |
